The values that follow come from article doi:10.1101/605725.

In this data set the target is GST-Nxf2 first LRR region (1-285) (UniProt Q9VV73 1-285). Kind of data set: EMSA. Background: In EMSA bound probe runs differently from free probe, usually more slowly.
Chain of GST-Nxf2 first LRR region (1-285) (Q9VV73 1-285): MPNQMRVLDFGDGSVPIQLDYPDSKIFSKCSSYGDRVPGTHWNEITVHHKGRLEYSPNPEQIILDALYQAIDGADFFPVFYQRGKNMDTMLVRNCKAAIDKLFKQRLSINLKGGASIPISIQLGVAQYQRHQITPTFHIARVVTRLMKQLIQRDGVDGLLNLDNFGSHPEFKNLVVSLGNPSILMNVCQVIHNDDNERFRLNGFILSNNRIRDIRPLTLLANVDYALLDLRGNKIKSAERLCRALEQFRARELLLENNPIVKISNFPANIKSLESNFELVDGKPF

For AGCACCGUAAAGACGC (ssRNA) [16-mer ssRNA], the binding result is recorded as “binds”.
